Values belong to the substance of their own block, whether it stands above or below them.
Experiments:
TOPBP1 BRCT0-1-2, 1-290 [1] = molecular target: TOPBP1 BRCT0-1-2, 1-290 (UniProt Q92547); assay: biotin-peptide pull-down, Coomassie SDS-PAGE; conditions: reference: unphosphorylated T1260 peptide; sites T1260
TOPBP1 BRCT0-1-2, 1-290 [2] = molecular target: TOPBP1 BRCT0-1-2, 1-290 (UniProt Q92547); assay: fluorescence polarisation titration; conditions: reference: pT1260 peptide, untreated; sites T1260
TOPBP1 = TOPBP1 (UniProt Q92547); assay: GFP-Trap co-IP, western blot; conditions: reference: eGFP-SLX4 wild type; sites T1260

binding against the reference (TOPBP1 BRCT0-1-2, 1-290 [1]): gained
Substance: SLX4 1247-1267 (from UniProt Q8IY92) synthetic pT1260 peptide

binding against the reference (TOPBP1 BRCT0-1-2, 1-290 [2]): lost
Substance: SLX4 1253-1267 (from UniProt Q8IY92) pT1260 peptide treated with lambda phosphatase

binding against the reference (TOPBP1): lost
Substance: SLX4 (from UniProt Q8IY92) eGFP-SLX4 T1260A
